Measurements: patent publication US20160039947A1 (Eli Lilly, published 2016)
Numbering of substitutions follows the chain as printed.

B1: HEDesign λλ (anti-HER-2/anti-EGFR IgG BsAb with Fab redesigns) (bispecific antibody)
heavy 1: EVQLVESGGGLVQPGGSLRLSCAASGFTFTDYTMDWVRKAPGKGLEWVADVNPNSGGSIYNQEFKGRFTLSVDRSKNTLYLQMNSLRAEDTAVYYCARNLGPSFYFDYWGQGTLVTVSSASTKGPSVFPLAPSSKSTSGGTAALGCLVKDYFPEPVTVSWNSGALTSGVATGPAVLQSSGLYSLSSVVTVPSSSLGTQTYICNVNHKPSNTKVDKKVEPKSCDKTHTCPPCPAPELLGGPSVFLFPPKPKDTLMISRTPEVTCVVVDVSHEDPEVKFNWYVDGVEVHNAKTKPREEQYQSTYRVVSVLTVLHQDWLNGKEYKCKVSNKALPAPIEKTISKAKGQPREPQVYTLPPSRDELTKNQVSLTCLVKGFYPSDIAVEWESNGQPENNYDTTPPVLDSDGSFFLYSDLTVDKSRWQQGNVFSCSVMHEALHNHYTQKSLSLSPG
light 1: RIQMTQSPSSLSASVGDRVTITCKASQDVSIGVAWYQDKPGKAPKLLIYSASYRYTGVPSRFSGSGSGTDFTLTISSLQPEDFATYYCQQYYIYPYTFGQGTKVEIKGQPKAAPSVTLFPPSSEELQANKATLVCYISDFYPGAVTVAWKADSSPVKAGVETTTPSKQSNNKYAAWSYLSLTPEQWKSHRSYSCQVTHEGSTVEKTVAPTEC
heavy 2: QVQLVQSGAEVKKPGASVKVSCKASGYTFTSHWMHWVRYAPGQGLEWIGEFNPSNGRTNYNEKFKSKATMTVDTSTNTAYMELSSLRSEDTAVYYCASRDYDYDGRYFDYWGQGTLVTVSSASTKGPSVFPLAPSSKSTSGGTAALGCLVKDYFPEPVTVSWNSGALTSGVHTFPAVLQSSGLYSLSSVVTVPSSSLGTQTYICNVNHKPSNTKVDKKVEPKSCDKTHTCPPCPAPELLGGPSVFLFPPKPKDTLMISRTPEVTCVVVDVSHEDPEVKFNWYVDGVEVHNAKTKPREEQYQSTYRVVSVLTVLHQDWLNGKEYKCKVSNKALPAPIEKTISKAKGQPREPQVYTLPPSRKELTKNQVSLTCLVKGFYPSDIAVEWESNGQPENNYKTTPPVLKSDGSFFLYSKLTVDKSRWQQGNVFSCSVMHEALHNHYTQKSLSLSPG
light 2: DIQMTQSPSSLSASVGDRVTITCSASSSVTYMYWYQRKPGKAPKLLIYDTSNLASGVPSRFSGSGSGTDYTFTISSLQPEDIATYYCQQWSSHIFTFGQGTKVEIKGQPKAAPSVTLFPPSSEELQANKATLVCLISDFYPGAVTVAWKADSSPVKAGVETTTPSKQSNNKYAASSYLSLTPEQWKSHRSYSCQVTHEGSTVEKTVAPTEC
notes: also called HE Designs
B2: HEDesign κλ (anti-HER-2/anti-EGFR IgG BsAb with Fab redesigns) (bispecific antibody)
heavy 1: B1 heavy 1
light 1: RIQMTQSPSSLSASVGDRVTITCKASQDVSIGVAWYQDKPGKAPKLLIYSASYRYTGVPSRFSGSGSGTDFTLTISSLQPEDFATYYCQQYYIYPYTFGQGTKVEIKRTVAAPSVFIFPPSDEQLKSGTASVVCYLNNFYPREAKVQWKVDNALQSGNSQESVTEQDSKDSTYSLWSTLTLSKADYEKHKVYACEVTHQGLSSPVTKSFNRGEC
heavy 2: B1 heavy 2
light 2: B1 light 2
notes: also called HE Designs
B3: HEDesign λκ (anti-HER-2/anti-EGFR IgG BsAb with Fab redesigns) (bispecific antibody)
heavy 1: B1 heavy 1
light 1: B1 light 1
heavy 2: B1 heavy 2
light 2: DIQMTQSPSSLSASVGDRVTITCSASSSVTYMYWYQRKPGKAPKLLIYDTSNLASGVPSRFSGSGSGTDYTFTISSLQPEDIATYYCQQWSSHIFTFGQGTKVEIKRTVAAPSVFIFPPSDEQLKSGTASVVCLLNNFYPREAKVQWKVDNALQSGNSQESVTEQDSKDSTYSLSSTLTLSKADYEKHKVYACEVTHQGLSSPVTKSFNRGEC
notes: also called HE Designs
B4: MAControl λλ (anti-cMET/anti-Axl IgG BsAb without Fab redesigns) (bispecific antibody)
heavy 1: EVQLVESGGGLVQPGGSLRLSCAASGYTFTSYWLHWVRQAPGKGLEWVGMIDPSNSDTRFNPNFKDRFTISADTSKNTAYLQMNSLRAEDTAVYYCATYRSYVTPLDYWGQGTLVTVSSASTKGPSVFPLAPSSKSTSGGTAALGCLVKDYFPEPVTVSWNSGALTSGVHTFPAVLQSSGLYSLSSVVTVPSSSLGTQTYICNVNHKPSNTKVDKKVEPKSCDKTHTCPPCPAPELLGGPSVFLFPPKPKDTLMISRTPEVTCVVVDVSHEDPEVKFNWYVDGVEVHNAKTKPREEQYQSTYRVVSVLTVLHQDWLNGKEYKCKVSNKALPAPIEKTISKAKGQPREPQVYTLPPSRDELTKNQVSLTCLVKGFYPSDIAVEWESNGQPENNYDTTPPVLDSDGSFFLYSDLTVDKSRWQQGNVFSCSVMHEALHNHYTQKSLSLSPG
light 1: DIQMTQSPSSLSASVGDRVTITCKSSQSLLYTSSQKNYLAWYQQKPGKAPKLLIYWASTRESGVPSRFSGSGSGTDFTLTISSLQPEDFATYYCQQYYAYPWTFGQGTKVEIKGQPKAAPSVTLFPPSSEELQANKATLVCLISDFYPGAVTVAWKADSSPVKAGVETTTPSKQSNNKYAASSYLSLTPEQWKSHRSYSCQVTHEGSTVEKTVAPTEC
heavy 2: EVQLVESGGGLVQPGGSLRLSCAASGFSLSGSWIHWVRQAPGKGLEWVGWINPYRGYAYYADSVKGRFTISADTSKNTAYLQMNSLRAEDTAVYYCAREYSGWGGSSVGYAMDYWGQGTLVTVSSASTKGPSVFPLAPSSKSTSGGTAALGCLVKDYFPEPVTVSWNSGALTSGVHTFPAVLQSSGLYSLSSVVTVPSSSLGTQTYICNVNHKPSNTKVDKKVEPKSCDKTHTCPPCPAPELLGGPSVFLFPPKPKDTLMISRTPEVTCVVVDVSHEDPEVKFNWYVDGVEVHNAKTKPREEQYQSTYRVVSVLTVLHQDWLNGKEYKCKVSNKALPAPIEKTISKAKGQPREPQVYTLPPSRKELTKNQVSLTCLVKGFYPSDIAVEWESNGQPENNYKTTPPVLKSDGSFFLYSKLTVDKSRWQQGNVFSCSVMHEALHNHYTQKSLSLSPG
light 2: DIQMTQSPSSLSASVGDRVTITCRASQDVSTAVAWYQQKPGKAPKLLIYSASFLYSGVPSRFSGSGSGTDFTLTISSLQPEDFATYYCQQSYTTPPTFGQGTKVEIKGQPKAAPSVTLFPPSSEELQANKATLVCLISDFYPGAVTVAWKADSSPVKAGVETTTPSKQSNNKYAASSYLSLTPEQWKSHRSYSCQVTHEGSTVEKTVAPTEC
B5: MADesign κλ (anti-cMET/anti-Axl IgG BsAb with Fab redesigns) (bispecific antibody)
heavy 1: B4 heavy 1 with Q39K, N63E, H170A, F172G
light 1: RIQMTQSPSSLSASVGDRVTITCKSSQSLLYTSSQKNYLAWYQDKPGKAPKLLIYWASTRESGVPSRFSGSGSGTDFTLTISSLQPEDFATYYCQQYYAYPWTFGQGTKVEIKRTVAAPSVFIFPPSDEQLKSGTASVVCYLNNFYPREAKVQWKVDNALQSGNSQESVTEQDSKDSTYSLWSTLTLSKADYEKHKVYACEVTHQGLSSPVTKSFNRGEC
heavy 2: B4 heavy 2 with Q39Y
light 2: B4 light 2 with Q38R
notes: also called MA Designs
B6: MAControl λκ (anti-cMET/anti-Axl IgG BsAb without Fab redesigns) (bispecific antibody)
heavy 1: B4 heavy 1
light 1: B4 light 1
heavy 2: B4 heavy 2
light 2: DIQMTQSPSSLSASVGDRVTITCRASQDVSTAVAWYQQKPGKAPKLLIYSASFLYSGVPSRFSGSGSGTDFTLTISSLQPEDFATYYCQQSYTTPPTFGQGTKVEIKRTVAAPSVFIFPPSDEQLKSGTASVVCLLNNFYPREAKVQWKVDNALQSGNSQESVTEQDSKDSTYSLSSTLTLSKADYEKHKVYACEVTHQGLSSPVTKSFNRGEC
B7: MADesign λλ (anti-cMET/anti-Axl IgG BsAb with Fab redesigns) (bispecific antibody)
heavy 1: B4 heavy 1 with Q39K, N63E, H170A, F172G
light 1: B4 light 1 with D1R, Q44D, L142Y, S182W
heavy 2: B4 heavy 2 with Q39Y
light 2: B4 light 2 with Q38R
notes: also called MA Designs
B8: MADesign λκ (anti-cMET/anti-Axl IgG BsAb with Fab redesigns) (bispecific antibody)
heavy 1: B4 heavy 1 with Q39K, N63E, H170A, F172G
light 1: B4 light 1 with D1R, Q44D, L142Y, S182W
heavy 2: B4 heavy 2 with Q39Y
light 2: B6 light 2 with Q38R
notes: also called MA Designs

These binders were tested against T1, hEGFR-Fc (human, UniProt P00533 25-645) (assay: sandwich ELISA: hHER-2-Fc coated, BsAb, hEGFR-Fc-biotin detection).
T1 construct: Biotin-labelled (EZ-Link Sulfo-NHS-LC-Biotin) as detection reagent in the ELISA; unlabelled second injection in SPR; also called hEGFR-Fc-biotin; not shown: Fc part of the bought fusion protein
Method: (§1) Two sandwich ELISAs are developed, one for detecting anti-HER-2/anti-EGFR BsAb activity and one for detecting anti-cMET/anti-Axl BsAb activity. For both ELISAs, clear 96-well round bottom high binding Immulon microtiter plates (Greiner bio-one, cat#650061) are coated overnight at 2-8° C. with 50 μL/well 1 μg/mL hHER-2-Fc or 1 μg/mL hHGFR(cMet)-Fc (both from R&D systems) in a 50 mM Na₂CO₃ pH 8 buffer. The plates are washed 4 times with PB ST and blocked with 100 μL/well casein buffer (Pierce) for 1 hr at 37° C. The plates are then washed 4 times with PBST and the parental IgG controls or BsAb IgG test articles are added at 50 μL/well and 5 μg/mL and serially diluted 1:3 down the plate. The test articles are incubated on the plate for 1 hr at 37° C. The plates are then washed 4 times with PBST and 50 μL/well 0.2 μg/mL hEGFR-Fc-biotin or hAxl-Fc-biotin (both from R&D systems) is added for 1 hr at 37° C. The plates are then washed 4 times with PBST followed by the addition of a 50 μL/well streptavidin-HRP (Jackson Labs) diluted 1:2000 in PBST. The streptavidin-HRP is incubated in each well for 1 hr at 37° C. The plates are then washed 4 times with PBST and 100 μL/well 1-component TMB substrate is added (KPL laboratories). After approximately 10 minutes, […] 1% H₃PO₄ (in H₂O) is added to each plate to quench the reaction. Absorbance (450 nm) of every well in the plates is read using a SpectraMax UV plate reader (Molecular Devices). Biotin-labeling of the hEGFR-Fc and hAxl-Fc proteins is performed using EZ-Link Sulfo-NHS-LC-Biotin (Thermo Scientific) according to the manufacturer's protocol.

Row | binding result | Binder
1 | binds | B1
2 | binds | B2
3 | binds | B3

Each binder was assayed against T2, hHER-2-Fc (human, UniProt P04626 23-652) in the same assay as above.
T2 construct: Coated unlabelled in the sandwich ELISA; biotinylated and captured on an SA chip in the SPR assay; also called human HER-2-Fc; hHER-2-Fc-biotin; not shown: Fc part of the bought fusion protein
Method: as §1

Row | binding result | Binder
4 | binds | B1
5 | binds | B2
6 | binds | B3

These binders were tested against T3, hHGFR(cMet)-Fc (human, UniProt P08581 25-932) (assay: sandwich ELISA: hHGFR(cMet)-Fc coated, BsAb, hAxl-Fc-biotin detection).
T3 construct: Coated in the sandwich ELISA; second injection in SPR; not shown: Fc part of the bought fusion protein
Method: as §1

T3 sequence (P08581 25-932): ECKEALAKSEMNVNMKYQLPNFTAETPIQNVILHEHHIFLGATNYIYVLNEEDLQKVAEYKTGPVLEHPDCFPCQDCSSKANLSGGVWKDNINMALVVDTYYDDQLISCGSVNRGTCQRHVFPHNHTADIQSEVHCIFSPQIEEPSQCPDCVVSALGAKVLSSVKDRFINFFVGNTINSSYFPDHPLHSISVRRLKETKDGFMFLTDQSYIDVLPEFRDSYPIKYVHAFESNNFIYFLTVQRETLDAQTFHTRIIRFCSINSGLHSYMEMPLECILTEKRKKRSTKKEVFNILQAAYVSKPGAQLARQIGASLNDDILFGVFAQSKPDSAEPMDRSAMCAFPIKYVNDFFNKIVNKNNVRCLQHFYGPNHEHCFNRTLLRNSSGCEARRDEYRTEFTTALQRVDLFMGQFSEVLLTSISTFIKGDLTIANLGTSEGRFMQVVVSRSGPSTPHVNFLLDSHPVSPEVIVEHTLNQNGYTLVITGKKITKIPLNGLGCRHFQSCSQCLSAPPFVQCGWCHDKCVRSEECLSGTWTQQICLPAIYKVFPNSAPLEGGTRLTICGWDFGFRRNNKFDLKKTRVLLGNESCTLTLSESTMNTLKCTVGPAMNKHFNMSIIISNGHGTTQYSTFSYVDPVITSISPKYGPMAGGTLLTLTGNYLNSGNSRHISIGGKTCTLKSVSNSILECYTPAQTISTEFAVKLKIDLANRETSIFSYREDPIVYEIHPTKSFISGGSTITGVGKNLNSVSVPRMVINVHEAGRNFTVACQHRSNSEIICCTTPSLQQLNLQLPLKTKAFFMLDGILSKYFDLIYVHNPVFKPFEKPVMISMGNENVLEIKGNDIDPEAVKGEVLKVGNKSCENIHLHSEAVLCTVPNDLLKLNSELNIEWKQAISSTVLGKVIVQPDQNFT

Row | binding result | Binder
7 | binds | B4
8 | binds | B5
9 | binds | B6
10 | binds | B7
11 | binds | B8
